Where two headings read alike, the source gives them in different places.
Columns and labels:
[1] = target: DENV4 NS1 (nonstructural protein 1 of dengue virus type 4 strain H241) (dengue virus serotype 4, strain H241)
[2] = target: DENV4 NS1 (nonstructural protein 1 of dengue virus type 4 strain H241) (dengue virus serotype 4, strain H241); remark: listed apart in the source
[3] = target: DENV2 NS1 (nonstructural protein 1 of dengue virus type 2 strain 16681) (dengue virus serotype 2, strain 16681)
[4] = target: DENV2 NS1 (nonstructural protein 1 of dengue virus type 2 strain 16681) (dengue virus serotype 2, strain 16681); remark: listed apart in the source
[5] = target: DENV3 NS1 (nonstructural protein 1 of dengue virus type 3 strain H87) (dengue virus serotype 3, strain H87)
[6] = target: DENV3 NS1 (nonstructural protein 1 of dengue virus type 3 strain H87) (dengue virus serotype 3, strain H87); remark: listed apart in the source

B1: mAb22-1.5 (antibody, V domains shown)
VH: EVQLQQSGPELVKPGASVKISCKASGYTFTDYNIHWVKQSPGKSLEWIGYIYPDNGDTGYNQIFKNKATLTVDTSSSAAYMELRSLTSEDSAVYYCVRRVLLDSWGQGTSVTVSS
VL: DIQMTQTTSSLSASLGDRVTISCSASQDINNFLNWYQQKPDGTIKLLIYYTSSLQSGVPSRFSGSGSGTDYSLTISNLEPEDIATYYCQQYSKLPRTFGGGTKLEIKR
Work on B1 yielded a minimum detectable concentration of NS1 proteins [1] of 0.977 ng/mL and a minimum detectable concentration of NS1 proteins [2] of 62.5 ng/mL.

B2: mAb33-7.1 (antibody, V domains shown)
VH: EVQLQESGAELAKPGASVKMSCKASGYTFTSYWMHWVKQRPGQVLEWIGYINPNTGFTEYSQKFKDKATLTAVKSSSTAYIQLTSLTSDDSAVYYCARENYRYDGAMDYWGQGTSVTVSS
VL: DIVLTQSPALMAAFPGDRVTITCSVSSSVSSSNLHWYQQKSETSPKPWIYGTSTLASGVPVRFSGSGSGTSYSLTISSMEAEDAATYYCQQWSSYPLTFGAGTKLELKR
With B2 the minimum detectable concentration of NS1 proteins [3] was 3.91 ng/mL and the minimum detectable concentration of NS1 proteins [4] was 62.5 ng/mL.

B3: mAb43-1.3 (antibody, V domains shown)
VH: GELQESGPQVVRPGTSVKISCKASGYSFSNYWMHWVKQRPGQGLEWIGVIDPSDSETRLNQKFKDKATLTVDKSSSTAYMQLSSPTSEDSAIYYCARSQFGLRFAYWGQGTLVTVSA
VL: DIVMTQSPSSMTVTAGEKVTMSCQSSQSLFNSGTQKNYLTWYQQKPGQPPKLLISWASTRDSGVPDRFTGSGSGTDFTLTINGVQAEDLAVYFCQNDYDSPYTFGGGTKLEIKR
Work on B3 yielded a minimum detectable concentration of NS1 proteins [5] of 3.91 ng/mL and a minimum detectable concentration of NS1 proteins [6] of 62.5 ng/mL.

— patent publication US20190375826A1
